According to the RNAGym collection of RNA variant scans (doi:10.1093/molbev/msab373):

B1: Azoarcus group I ribozyme (parent)
chain: GUGCCUUGCGCCGGGAAACCACGCAAGGGAUGGUGUCAAAUUCGGCGAAACCUAAGCGCCCGCCCGGGCGUAUGGCAACGCCGAGCCAAGCUUCGGCGCCUGCGCCGAUGAAGGUGUAGAGACUAGACGGCACCCACCUAAGGCAAACGCUAUGGUGAAGGCAUAGUCCAGGGAGUGGCGAAAGUCACACAAACCGG

Variants of: B1
Assay: reverse-splicing fitness (ratio to wild type); higher = more active; in vitro selection; Mg2+ level not given
Summary of the method: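 An in vitro group I ribozyme library with randomized positions was T7-transcribed and gel-purified. In triplicate, 10 pmol RNA in EPPS pH 7.5 was reacted with 50 pmoles of a 30-nt RNA substrate for 1 h at 37 °C across several added MgCl2 levels (1–48 mM), then stopped with EDTA. Products were reverse transcribed from a substrate-complementary primer, PCR-amplified and sequenced (HiSeq 4000). Fitness is a variant's read proportion after selection over that before, normalised to wild type.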

Q: Which reverse-splicing fitness does the source give for A111C A120U A145C C150U U176A here?
A: Its reverse-splicing fitness is 0.0649.

Q: For A111C A120U A145U U176G, which reverse-splicing fitness is on record?
A: Its reverse-splicing fitness is 0.0748.

Q: With A111C A120U A145U U176A as the variant, how does the reverse-splicing fitness read?
A: Its reverse-splicing fitness is 0.221.

Q: Which reverse-splicing fitness does the source give for A111C A120U A145U U176C here?
A: The reverse-splicing fitness was 0.271.

Q: For A111C A120U A145C C150U C169G U176C, which reverse-splicing fitness is on record?
A: The reverse-splicing fitness was 0.00324.

Q: With A111C A120U A145C C150U C169G U176A as the variant, how does the reverse-splicing fitness read?
A: The reverse-splicing fitness was 0.00383.

Q: Which reverse-splicing fitness does the source give for A111C A120U A145C C150U C169G U176G here?
A: Its reverse-splicing fitness is 0.00229.

Q: For A111C A120U C150G U176C, which reverse-splicing fitness is on record?
A: The reverse-splicing fitness was 0.0217.

Q: For A111C A120U C150G U176G, which reverse-splicing fitness is on record?
A: The reverse-splicing fitness was 0.00356.

Q: Which reverse-splicing fitness does the source give for A111C A120U C150G U176A here?
A: The reverse-splicing fitness was 0.0127.

Q: Which reverse-splicing fitness does the source give for A111C A120G C150G C169A U176C here?
A: The reverse-splicing fitness was 0.0109.

Q: Which reverse-splicing fitness does the source give for A111C A120G C150G C169A U176A here?
A: Its reverse-splicing fitness is 0.00971.

Q: Which reverse-splicing fitness does the source give for A111C A120G C150G C169A U176G here?
A: The reverse-splicing fitness was 0.00481.

Q: With A111C A120G C169A as the variant, how does the reverse-splicing fitness read?
A: Its reverse-splicing fitness is 0.131.

Q: For A111C A120G C169G, which reverse-splicing fitness is on record?
A: Its reverse-splicing fitness is 0.22.

Q: With A111C A120G C169U as the variant, how does the reverse-splicing fitness read?
A: Its reverse-splicing fitness is 0.17.

Q: For A111C A120G C169A U176C, which reverse-splicing fitness is on record?
A: Its reverse-splicing fitness is 0.0306.

Q: Which reverse-splicing fitness does the source give for A111C A120G C169A U176A here?
A: Its reverse-splicing fitness is 0.0221.

Q: Which reverse-splicing fitness does the source give for A111C A120G C169A U176G here?
A: Its reverse-splicing fitness is 0.00418.

Q: With A111C A120G C150U C169U U176G as the variant, how does the reverse-splicing fitness read?
A: Its reverse-splicing fitness is 0.00549.

Q: With A111C A120G C150U C169U U176A as the variant, how does the reverse-splicing fitness read?
A: The reverse-splicing fitness was 0.0337.

Q: Which reverse-splicing fitness does the source give for A111C A120G C150U C169U U176C here?
A: Its reverse-splicing fitness is 0.0371.

Q: With A111C A120G C150G C169G U176C as the variant, how does the reverse-splicing fitness read?
A: The reverse-splicing fitness was 0.00473.

Q: For A111C A120G C150G C169G U176G, which reverse-splicing fitness is on record?
A: Its reverse-splicing fitness is 0.00457.

Q: Which reverse-splicing fitness does the source give for A111C A120G C150G C169G U176A here?
A: Its reverse-splicing fitness is 0.0066.

Q: Which reverse-splicing fitness does the source give for A111C A120U A145G C150U U176G here?
A: Its reverse-splicing fitness is 0.0303.

Q: With A111C A120U A145G C150U U176A as the variant, how does the reverse-splicing fitness read?
A: The reverse-splicing fitness was 0.184.

Q: Which reverse-splicing fitness does the source give for A111C A120U A145G C150U U176C here?
A: Its reverse-splicing fitness is 0.239.

Q: For A111C A120G C150U C169A, which reverse-splicing fitness is on record?
A: Its reverse-splicing fitness is 0.0604.

Q: For A111C A120G C150U C169G, which reverse-splicing fitness is on record?
A: The reverse-splicing fitness was 0.112.

Q: Which reverse-splicing fitness does the source give for A111C A120G C150U C169U here?
A: Its reverse-splicing fitness is 0.0919.

Q: With A111C A120U A145U C150U C169A as the variant, how does the reverse-splicing fitness read?
A: Its reverse-splicing fitness is 0.00426.

Q: Which reverse-splicing fitness does the source give for A111C A120U A145U C150U C169G here?
A: The reverse-splicing fitness was 0.0348.

Q: Which reverse-splicing fitness does the source give for A111C A120U A145U C150U C169U here?
A: Its reverse-splicing fitness is 0.0452.

Q: Which reverse-splicing fitness does the source give for A111C A120U A145U C169G U176C here?
A: The reverse-splicing fitness was 0.00935.

Q: Which reverse-splicing fitness does the source give for A111C A120U A145U C169G U176A here?
A: Its reverse-splicing fitness is 0.00434.

Q: For A111C A120U A145U C169G U176G, which reverse-splicing fitness is on record?
A: The reverse-splicing fitness was 0.00209.

Q: With A111C A120U A145G C150G U176C as the variant, how does the reverse-splicing fitness read?
A: Its reverse-splicing fitness is 0.0349.

Q: For A111C A120U A145G C150G U176G, which reverse-splicing fitness is on record?
A: The reverse-splicing fitness was 0.00515.

Q: Which reverse-splicing fitness does the source give for A111C A120U A145G C150G U176A here?
A: The reverse-splicing fitness was 0.0151.

Q: For A111C A120G C150G, which reverse-splicing fitness is on record?
A: The reverse-splicing fitness was 0.0159.

Q: For A111C A120G C150U, which reverse-splicing fitness is on record?
A: Its reverse-splicing fitness is 0.0912.

Q: With A111C A120U A145C C150A C169G U176A as the variant, how does the reverse-splicing fitness read?
A: Its reverse-splicing fitness is 0.00305.

Q: Which reverse-splicing fitness does the source give for A111C A120U A145C C150A C169G U176C here?
A: The reverse-splicing fitness was 0.00302.

Q: Which reverse-splicing fitness does the source give for A111C A120U A145C C150A C169G U176G here?
A: The reverse-splicing fitness was 0.0024.

Q: With A111C A145C C150A C169A as the variant, how does the reverse-splicing fitness read?
A: Its reverse-splicing fitness is 0.00829.

Q: For A111C A145C C150A C169U, which reverse-splicing fitness is on record?
A: The reverse-splicing fitness was 0.0128.

Q: With A111C A145C C150A C169G as the variant, how does the reverse-splicing fitness read?
A: Its reverse-splicing fitness is 0.00874.

Q: For A111C A145C C150G, which reverse-splicing fitness is on record?
A: Its reverse-splicing fitness is 0.246.

Q: For A111C A145C C150A, which reverse-splicing fitness is on record?
A: The reverse-splicing fitness was 0.15.

Q: With A111C A120U A145C C150A U176A as the variant, how does the reverse-splicing fitness read?
A: Its reverse-splicing fitness is 0.016.

Q: For A111C A120U A145C C150A U176G, which reverse-splicing fitness is on record?
A: Its reverse-splicing fitness is 0.00735.

Q: For A111C A120U A145C C150A U176C, which reverse-splicing fitness is on record?
A: Its reverse-splicing fitness is 0.0101.

Q: For A111C A120U C150U C169U U176C, which reverse-splicing fitness is on record?
A: Its reverse-splicing fitness is 0.0116.

Q: For A111C A120U C150U C169U U176G, which reverse-splicing fitness is on record?
A: The reverse-splicing fitness was 0.00319.

Q: For A111C A120U C150U C169U U176A, which reverse-splicing fitness is on record?
A: The reverse-splicing fitness was 0.0122.

Q: For A111C A120U A145G C169G U176C, which reverse-splicing fitness is on record?
A: The reverse-splicing fitness was 0.0098.

Q: Which reverse-splicing fitness does the source give for A111C A120U A145G C169G U176G here?
A: Its reverse-splicing fitness is 0.00174.

Q: Which reverse-splicing fitness does the source give for A111C A120U A145G C169G U176A here?
A: The reverse-splicing fitness was 0.0064.

Q: For A111C A145C C150G C169U U176A, which reverse-splicing fitness is on record?
A: Its reverse-splicing fitness is 0.00817.

Q: With A111C A120U A145G as the variant, how does the reverse-splicing fitness read?
A: The reverse-splicing fitness was 0.675.

Q: Which reverse-splicing fitness does the source give for A111C A120U A145C here?
A: The reverse-splicing fitness was 0.598.

Q: Which reverse-splicing fitness does the source give for A111C A120U A145U here?
A: Its reverse-splicing fitness is 0.629.

Q: For A111C A120U C150U C169A U176C, which reverse-splicing fitness is on record?
A: Its reverse-splicing fitness is 0.00309.

Q: Which reverse-splicing fitness does the source give for A111C A120U C150U C169A U176A here?
A: The reverse-splicing fitness was 0.00394.

Q: With A111C A120U C150U C169A U176G as the variant, how does the reverse-splicing fitness read?
A: Its reverse-splicing fitness is 0.00204.

Q: Which reverse-splicing fitness does the source give for A111C A120U A145C C169A here?
A: Its reverse-splicing fitness is 0.00529.

Q: For A111C A120U A145C C169G, which reverse-splicing fitness is on record?
A: Its reverse-splicing fitness is 0.0517.

Q: Which reverse-splicing fitness does the source give for A111C A120U A145C C169U here?
A: The reverse-splicing fitness was 0.0701.

Q: With A111C A120U A145C C169G U176C as the variant, how does the reverse-splicing fitness read?
A: The reverse-splicing fitness was 0.00626.

Q: For A111C A120U A145C C169G U176A, which reverse-splicing fitness is on record?
A: The reverse-splicing fitness was 0.00676.

Q: For A111C A120U A145C C169G U176G, which reverse-splicing fitness is on record?
A: Its reverse-splicing fitness is 0.0018.

Q: For A111C A120U A145U C150U C169U U176C, which reverse-splicing fitness is on record?
A: Its reverse-splicing fitness is 0.0142.

Q: For A111C A120U A145U C150U C169U U176G, which reverse-splicing fitness is on record?
A: Its reverse-splicing fitness is 0.00224.

Q: Which reverse-splicing fitness does the source give for A111C A120U A145U C150U C169U U176A here?
A: The reverse-splicing fitness was 0.00859.

Q: For A111C A120G C150G U176A, which reverse-splicing fitness is on record?
A: Its reverse-splicing fitness is 0.0109.

Q: For A111C A120G C150G U176G, which reverse-splicing fitness is on record?
A: The reverse-splicing fitness was 0.00348.

Q: Which reverse-splicing fitness does the source give for A111C A120G C150G U176C here?
A: The reverse-splicing fitness was 0.0173.

Q: Which reverse-splicing fitness does the source give for A111C A120U C150A C169A U176G here?
A: The reverse-splicing fitness was 0.00239.

Q: For A111C A120U C150A C169A U176A, which reverse-splicing fitness is on record?
A: The reverse-splicing fitness was 0.00602.

Q: Which reverse-splicing fitness does the source give for A111C A120U C150A C169A U176C here?
A: Its reverse-splicing fitness is 0.00383.

Q: Which reverse-splicing fitness does the source give for A111C A120U A145G C169U here?
A: The reverse-splicing fitness was 0.0781.

Q: For A111C A120U A145G C169G, which reverse-splicing fitness is on record?
A: The reverse-splicing fitness was 0.0583.

Q: With A111C A120U A145G C169A as the variant, how does the reverse-splicing fitness read?
A: Its reverse-splicing fitness is 0.00474.
